41 sequences from the nanobody polyreactivity screen of Harvey et al. (2022) can be followed below.

This series is described as follows: yeast display, Sf9 membrane polyspecificity reagent, FACS + sequencing; frameworks hold sequencing errors. In short, it runs like this:
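In a synthetic yeast display library (Saccharomyces cerevisiae BJ5465), nanobody expression was induced with galactose for 36–48 hours. FACS gates were set low and high (top ~1%) using anti-HA fluorescence for expression and streptavidin fluorescence for binding of the Sf9 membrane reagent. Each polyreactivity label is drawn from the gate of origin.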
Take “QVQLVESGGGLVQAGGSLRLSCAASGSTFQSNAMGWYRQAPGKERELVAAINSGTSTYYADSVKGRFTISRDNAKNTVYLQMNSLKPEDTAVYYCAADGIWGEYYYSELGDYDYWGQGTQVTVSS”: the “polyreactivity (PSR sort gate)” value is given as “low polyreactivity”. “QVQLVESGGGLVQAGGSLRLSCAASGSTFQSYAMGWYRQAPGKERELVAAISTSDTDRTYYADSVKGRFTISRDNAKNTVYLQMNSLKPEDTAVYYCNAEGTYRPEYDSWGQGTQVTVSS”: the “polyreactivity (PSR sort gate)” value is recorded as “low polyreactivity”.

Regarding “QVQLVESGGGLVQAGGSLRLSCAASGSTFQSYAMGWYRQAPGKERELVAGITSGDSTNYADSVKGRFTISRDNAKNTVYFQMISLKPEDTAVYYCNAVTQASYYYWGQGTQVTVSS”, the “polyreactivity (PSR sort gate)” value is “low polyreactivity”. The value for “QVQLVESGGGLVQAGGSLRLSCAASGSTFQSYAMGWYRQAPWKERELVAAITTTGTRTYYADSVKGRFTISRDNAKNTVYLQMNSLKPEDTAVYYCNAQRLQAHRTSRRYGYWGQGTQVTVSS” was “high polyreactivity”; that for “QVQLVESGGGLVQAGGSLRLSCAASGSTFQTNAMGWYRQAPGKERELVAAINSGGGTNYADSVKGRFTFSRDNAKYTVYLQMNSLKPEDSAVYYCAAAYFDFWGWLHDYWGQGTQVTVSS” was “low polyreactivity”. “QVQLVESGGGLVQAGGSLRLSCAASGSTFQTYAMGWYRQAPGKERELLAAINWRSGSTYYADSVKGRFTISRDNAKNTVYLQMNSLTPEDTAVSYCAAELDFSPGYYYLYDYWGQGTQVTVSS”: the “polyreactivity (PSR sort gate)” value is on record as “low polyreactivity”.

Take “QVQLVESGGGLVQAGGSLRLSCAASGSTFQTYAMGWYRQAPGKERELVAAITWRGGSTYYADSVKGRFTISRDNAKTTVYLQMNSLKPEDTAVYSCAAKWHGAHDHRAAYESWGQGTQVTVSS”: the “polyreactivity (PSR sort gate)” value was “low polyreactivity”. As for “QVQLVESGGGLVQAGGSLRLSCAASGSTFQVNAMGWYRQAPGKERELVASISGGSSTNYADSVKGRFTISRDNAKNTVYLQMNSLKPEDTAVYYCAAYYLSGLRVAYDYWGQGTQVTVSS”, the “polyreactivity (PSR sort gate)” value was “low polyreactivity”. Then “QVQLVESGGGLVQAGGSLRLSCAASGSTFQVYAMGLYRQAPGKERELVASITSGGSTYADSVKGRFTISRDNAKNTVYLQINSLKPEDTAVYYCAAGGYFYPYTYDYWGQGTQVTVSS”, with “low polyreactivity”; and “QVQLVESGGGLVQAGGSLRLSCAASGSTFQVYAMGWYRQAPGKERELVATIRGVGSTNYADSVKGRFTISRDNAKKTVYLQMNSLKPEDTAVYYCNAAVSQFSHRWRRRITFDYWGQGTQVTVSS”, with “low polyreactivity”. Regarding “QVQLVESGGGLVQAGGSLRLSCAASGSTFQYNAMGWYRQAPGKERELVAVITRRGGRTYYADSVKGRFTISRDNAKNTVYLQMNSLKPEDTAVYYCAAYYDYTHRFYYWGQGTQVTVSS”, the “polyreactivity (PSR sort gate)” value is “high polyreactivity”.

Consider “QVQLVESGGGLVQAGGSLRLSCAASGSTFQYNVMGWSRQAPGKERELVAAIRQSGSTTYYADSVKGRFTISRDNAKNTVYLQMNSLKPEDSAVYYCAKRYHNWANSRMDYWGQGSQVTVSS”, for which the “polyreactivity (PSR sort gate)” value is given as “low polyreactivity”.

On to “QVQLVESGGGLVQAGGSLRLSCAASGSTFQYNVMGWYRQAPGKERELVAAISRSGTRTSYADSVKGRFTISRDYAKNTVYLQMNTLKPEDTAVYYCAAVVYHRYYSGYYYWGQGTQVTVST”, for which the “polyreactivity (PSR sort gate)” value is given as “high polyreactivity”.

Turning to “QVQLVESGGGLVQAGGSLRLSCAASGSTFQYYAMGWYRQAPGKERELVAAIRTGGSTNYADSVKGRFTISRDNAKNTFYLQMNSLKPEDTAVYYCAKRSLRSYRMNYWGQGTQVTVSS”, the “polyreactivity (PSR sort gate)” value was “high polyreactivity”. In the case of “QVQLVESGGGLVQAGGSLRLSCAASGSTFQYYAMGWYRQAPGKERELVAAISSSGGSTYYADSVKGRFTISRDNAKNTVYLQMNSLKPEDTAVYYCAKRFRRFTYTRDYWGQGTQVTVSS”, the “polyreactivity (PSR sort gate)” value is “high polyreactivity”. The value for “QVQLVESGGGLVQAGGSLRLSCAASGSTFQYYAMGWYRQAPGKERELVAAISSSGGSTYYADSVKGRFTISRDYAKNTVYFQMNSQKPEDTAVYYCAKRFRRFTYTRDYWGQGTQVTVTS” was “high polyreactivity”; that for “QVQLVESGGGLVQAGGSLRLSCAASGSTFRANAMGWYRQAPGTERELVAVISSGGRTYYADSVKGRFTMSRDNAKTTVYLQMNSLKPEDTAVYYCAKDDYSVWYYYDYDYWGQGTQVTVSS” was “high polyreactivity”; that for “QVQLVESGGGLVQAGGSLRLSCAASGSTFRAYAMGWYRQAPGKEREFVADISWSGGSTYYADSVKGRFTISRDNAKNTVYLQMNSLKPEDTAVYYCAAEAAPLIIVTYDYWGQGTQVTVSS” was “low polyreactivity”. As for “QVQLVESGGGLVQAGGSLRLSCAASGSTFREYTMGWYRQAPGKERELVAAITNSGGSTYYADSVKGRFTISRDNAKNTVYLQMNSLKPEDTAVYYCAAEVGIVDYDYWGQGTQVTVSS”, the “polyreactivity (PSR sort gate)” value is listed as “low polyreactivity”. Turning to “QVQLVESGGGLVQAGGSLRLSCAASGSTFRFNAMGWYRQAPGKERELVAAISGSGGSTYYADSVKGRFTISRDNAKNTVYLQMNSLKPEDTAVYYCAASASSRSYFKSYYWGQGTQVTVSS”, the “polyreactivity (PSR sort gate)” value is “high polyreactivity”. For the sequence “QVQLVESGGGLVQAGGSLRLSCAASGSTFRFNAMGWYSQAPGKERELVAAITGIGGITYYADSVKGRFTISRDNAKNTVYLQMNSLKPEDTAVYYCNAVAARYSVRNGYSTHYDYWGQGTQVTVSS”, the “polyreactivity (PSR sort gate)” value is on record as “high polyreactivity”. On to “QVQLVESGGGLVQAGGSLRLSCAASGSTFRFYAMGWYRQAPGKERELLAAINGSGGSTYYADSVKGRFTISRDKAKSTVNLQMNSLKPEDTAVYYSAVLYRYGYDYWGQGTQVTVSS”, for which the “polyreactivity (PSR sort gate)” value was “low polyreactivity”. For the sequence “QVQLVESGGGLVQAGGSLRLSCAASGSTFRGNAMGWYRQAPGKERELVAAISRRGGSTNYADSVKGRFTISRDNAKNTVYLQMNSLKPEDTAVYYCNKGDYRSAYRHIEYGYWGQGTQVTVSS”, the “polyreactivity (PSR sort gate)” value is recorded as “low polyreactivity”. As to “QVQLVESGGGLVQAGGSLRLSCAASGSTFRGYALGWYRQAPGKERELVATISGSDGTTYYADSVKGRFTISRDNAKNTVYLQMNSLKPEDTAVYYCAAGETFEMYYWGQGTQVTVSS”, the “polyreactivity (PSR sort gate)” value was “low polyreactivity”. Turning to “QVQLVESGGGLVQAGGSLRLSCAASGSTFRGYAMGWYRQAPGKERELVAAISSRGARTHYADSVKGRFTISRDNAKNTVYLQMNSLKPEDTAVYYCNKRQVFVSTGEYELDYWGQGTQVTVSS”, the “polyreactivity (PSR sort gate)” value is “low polyreactivity”. Then “QVQLVESGGGLVQAGGSLRLSCAASGSTFRGYAMGWYRQAPGKERELVAAISWSGVSTYYADSVKGRFTISRDNAKNTVYLQMNSLKPEDTAVYYCAAGYSSAYLRFGYWGQGTQVTVSS”, with “low polyreactivity”; and “QVQLVESGGGLVQAGGSLRLSCAASGSTFRGYAMGWYRQAPGKERELVASISWSGGSTYYADSVKGRFTISRDNAKNTVYLQMNSLKPEDTAVYYCAARKRWRNIRMDYWGQGTQVTVSS”, with “high polyreactivity”; and “QVQLVESGGGLVQAGGSLRLSCAASGSTFRGYVMGWYRQAPGKERELVAAITYSGGSTYYADSVKGRFTISRDNAKNTVYLQLNSLKPEDTAVYYGADEIYDSYYEDDYWGQGTQVTVSS”, with “high polyreactivity”. The value for “QVQLVESGGGLVQAGGSLRLSCAASGSTFRHNVMGWYRQAPGKERELVAAISYSGGSTHYADSVKGRFTISRDNAKNTVYLQMNSLKPEDTAVYYCNRYSYDSHFLYPFRGHDYWGQGTQVTVSS” was “low polyreactivity”; that for “QVQLVESGGGLVQAGGSLRLSCAASGSTFRHYAMGWYRQAPGKERELVAVISWGGTSTYYADSVKGRFTISRDNAKNTVYLQMNSLKPEDTAVYYCAVKYAYPYAGVSAIRYYYWGQGTQVTVSS” was “low polyreactivity”; that for “QVQLVESGGGLVQAGGSLRLSCAASGSTFRINAMGWYRQAPGNERELVAAMSYNGGGTYADSVKGRFTISRDNAKNTVYLQMNSLKPEDTAVSYCAADTYYGQAYTAYTYRLYDYWGEGTQVTVSS” was “low polyreactivity”.

As for “QVQLVESGGGLVQAGGSLRLSCAASGSTFRIYAMGWYRQAPGREREFVAAITWTGGSTYYADSVKGRFTISRDNAKNTVYLQMNSLKPEDTADYYCAARQLSDYYWGQGTQVTVSS”, the “polyreactivity (PSR sort gate)” value is “high polyreactivity”.

With “QVQLVESGGGLVQAGGSLRLSCAASGSTFRKYAMGWYRQAPGKEREFVAAISSSGGRTYYADSVKGRFTISRDNAKNTVYLQMNSLKPEDTAVYYCNAYFRYSYDYWGQGTQVTVSS”, the “polyreactivity (PSR sort gate)” value is listed as “high polyreactivity”. Take “QVQLVESGGGLVQAGGSLRLSCAASGSTFRKYTMGWYRQAPGKERELVASISRRGGSTYYADSVKGRFTISRDNAKNTVYLQMNSLKPEDTAVYYCNVTYSQYGYDYWGQGTQVTVSS”: the “polyreactivity (PSR sort gate)” value is listed as “high polyreactivity”. Turning to “QVQLVESGGGLVQAGGSLRLSCAASGSTFRLNAMGWYRQARGKEWEFVAAISSRGGSTYYADSVKGRFTISRDNAKNTDYLQMNSLKPEDTAVYYCKAVRSKLIENDYWGQGTQVTVSS”, the “polyreactivity (PSR sort gate)” value was “high polyreactivity”. Consider “QVQLVESGGGLVQAGGSLRLSCAASGSTFRLNAMGWYRQSPGKERELVAAISRGGSTNYADSVKGRFTISRDNAKNTVYLQMNSLKPEDTAVYYCATRRSYKYYWGQGTQVTVSS”, for which the “polyreactivity (PSR sort gate)” value is “high polyreactivity”. The value for “QVQLVESGGGLVQAGGSLRLSCAASGSTFRLYAMGWYRQAPGKERELVAAISQRGGSTYYADSVKGRFTISRDNAKNTVYLQMNSLKPEDTAVYYCNTDWYRKWGKPYYYWGQGTQVTVSS” was “high polyreactivity”; that for “QVQLVESGGGLVQAGGSLRLSCAASGSTFRLYTKGWYRQAPGKERELVAAISVSGVSTYYADSVKGRFTISRDNAKNTVYVQMNSLKPEDTAVYYCAKRGYLFLRGSVRVGYNYWGQGTQVTVSS” was “low polyreactivity”; that for “QVQLVESGGGLVQAGGSLRLSCAASGSTFRNNAMGWYRQAPGKERELVAAISWIGGDTYYADSVKGRFTISRDNAKNTVYLQMNSLKPEDTAVYYCNRDFVYWPWFKFDYWGQGTQVTVSS” was “low polyreactivity”.

As to “QVQLVESGGGLVQAGGSLRLSCAASGSTFRNYAMGWYRQAPGKDRELVAAISGSGGRTNYADSVKGRFTISRDNAKTTVYLQMNSLKPEDTAVYYCAASGGRNWWAARNYYWGQGTQVTVSS”, the “polyreactivity (PSR sort gate)” value is reported as “low polyreactivity”. The value for “QVQLVESGGGLVQAGGSLRLSCAASGSTFRPNAMGWYRPAPGKDRELVAAISWSGRSTYYADSVKGRFTISRDQAKTTVYLQMNSLTPQDTAVADCAKELYAGRTDTRTRYDYWGQGTQVTVSS” was “high polyreactivity”.
